T1: FcγRIIa type R extracellular domain with C-terminal His tag (human, UniProt P12318 34-217)
T1 construct: extracellular domain; also called FcgRIIa R; FcγRIIa R
T1 sequence (looked up): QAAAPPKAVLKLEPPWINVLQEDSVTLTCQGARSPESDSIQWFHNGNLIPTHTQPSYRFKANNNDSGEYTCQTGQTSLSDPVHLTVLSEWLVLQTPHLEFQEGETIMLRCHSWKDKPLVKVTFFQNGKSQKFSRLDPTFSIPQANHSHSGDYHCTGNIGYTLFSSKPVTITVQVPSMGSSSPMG

T2: FcγRIIb extracellular domain with C-terminal His tag (human, UniProt P31994 43-217)
T2 construct: extracellular domain; also called FcgRIIb
T2 sequence (looked up): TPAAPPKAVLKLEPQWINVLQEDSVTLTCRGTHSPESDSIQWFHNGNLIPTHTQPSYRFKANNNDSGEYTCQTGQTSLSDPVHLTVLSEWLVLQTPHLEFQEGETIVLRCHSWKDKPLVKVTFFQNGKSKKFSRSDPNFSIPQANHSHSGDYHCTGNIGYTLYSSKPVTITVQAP

T3: FcγRIIa type H extracellular domain with C-terminal His tag (human, UniProt P12318 34-217)
T3 construct: extracellular domain; also called FcgRIIa H; FcγRIIa H
T3 sequence (looked up): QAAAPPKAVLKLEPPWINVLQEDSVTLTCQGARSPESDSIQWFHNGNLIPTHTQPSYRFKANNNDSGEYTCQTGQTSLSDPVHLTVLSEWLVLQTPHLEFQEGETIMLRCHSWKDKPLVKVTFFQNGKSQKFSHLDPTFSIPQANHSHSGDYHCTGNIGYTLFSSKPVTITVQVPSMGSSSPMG


Legend:
[1] = target: T1, FcγRIIa type R extracellular domain …; assay: SPR (Biacore T100), antibody captured on antigen-peptide chip, FcγR analyte, 1:1 Langmuir fit
Procedure: (§1) These antibodies were assessed for the binding activity to each FcγR according to the method described in Reference Example 2.
(§2) Analysis of interaction between objective antibody and the FcγR was carried out using Biacore T100 (GE Healthcare). HBS-EP+ (GE Healthcare) was used as the running buffer, and the measurement temperature was set to 25° C. Chips produced by immobilizing the antigen peptide by the amine coupling method to a Series S Sencor Chip CM5 (GE Healthcare), or alternatively, chips produced by allowing preliminarily biotinylated antigen peptides to interact with and immobilize onto a Series S Sensor Chip SA (certified) (GE Healthcare) were used. Antibodies of interest were captured onto an antigen peptide-immobilized chip, and allowed to interact to each FcγR diluted with running buffer. To regenerate and repeatedly use the chip, the antibodies captured on the chip were washed off by reacting 10 mM glycine-HCl, pH 1.5.
(§3) The FcγR-binding activity of each antibody was assessed primarily using as an indicator the FcγR-binding activity and dissociation constant for FcγR.

[2] = target: T2, FcγRIIb extracellular domain with …; assay: as above
Procedure: as §1, §2, §3

[3] = target: T4, FcγRIIIa type V extracellular domain with C-terminal His tag (human, UniProt P08637 17-208); assay: as above
T4 construct: extracellular domain; also called FcgRIIIa V; FcγRIIIa V
T4 sequence (P08637 17-208 F176V): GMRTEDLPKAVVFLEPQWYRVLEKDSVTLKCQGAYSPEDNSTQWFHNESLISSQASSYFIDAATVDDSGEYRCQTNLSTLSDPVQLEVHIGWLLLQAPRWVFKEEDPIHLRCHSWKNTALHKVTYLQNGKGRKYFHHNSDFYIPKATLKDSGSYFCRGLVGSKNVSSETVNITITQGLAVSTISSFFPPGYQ
Procedure: as §1, §2, §3

[4] = target: T3, FcγRIIa type H extracellular domain …; assay: as above
Procedure: as §1, §2, §3

[5] = target: T5, FcγRIIIa type F extracellular domain with C-terminal His tag (human, UniProt P08637 17-208); assay: as above
T5 construct: extracellular domain; also called FcgRIIIa F; FcγRIIIa F
T5 sequence (P08637 17-208): as the sequence (P08637 17-208 F176V) above, with V160F counted along it
Procedure: as §1, §2, §3

[6] = target: T6, FcγRIa extracellular domain with C-terminal His tag (human, UniProt P12314 16-292); assay: as above
T6 construct: extracellular domain; also called FcgRIa; FcgRI
T6 sequence (P12314 16-292): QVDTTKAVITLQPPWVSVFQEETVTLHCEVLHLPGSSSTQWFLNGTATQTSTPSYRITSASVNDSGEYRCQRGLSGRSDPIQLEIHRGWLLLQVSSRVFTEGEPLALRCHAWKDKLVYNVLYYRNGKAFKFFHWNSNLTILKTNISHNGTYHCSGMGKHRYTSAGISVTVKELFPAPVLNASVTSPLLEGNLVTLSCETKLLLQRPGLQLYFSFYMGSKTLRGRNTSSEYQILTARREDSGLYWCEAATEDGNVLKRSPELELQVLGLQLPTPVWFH
Procedure: as §1, §2, §3

[7] = target: T1, FcγRIIa type R extracellular domain …; assay: SPR (Biacore T100), ratio of KD values
Procedure: as §1, §2, §3

[8] = target: T2, FcγRIIb extracellular domain with …; assay: SPR (Biacore T100), ratio of KD values
Procedure: as §1, §2, §3

[9] = target: T4, FcγRIIIa type V extracellular domain …; assay: SPR (Biacore T100), ratio of KD values
Procedure: as §1, §2, §3

[10] = target: T3, FcγRIIa type H extracellular domain …; assay: SPR (Biacore T100), ratio of KD values
Procedure: as §1, §2, §3

[11] = target: T5, FcγRIIIa type F extracellular domain …; assay: SPR (Biacore T100), ratio of KD values
Procedure: as §1, §2, §3

[12] = target: T6, FcγRIa extracellular domain with …; assay: SPR (Biacore T100), ratio of KD values
Procedure: as §1, §2, §3

Binder	Kd [1] [nM]	Kd [2] [nM]	Kd [3] [nM]	Kd [4] [nM]	Kd [5] [nM]	Kd [6] [nM]	KD ratio [7]	KD ratio [8]	KD ratio [9]	KD ratio [10]	KD ratio [11]	KD ratio [12]
GpH7-Kn033/GpH7-Hl033/GpL16-k0 (antibody, human IgG1, kappa, Anti-glypican-3 IgG1 with knobs-into-holes alone; also called Kn033/Hl033) heavy 1: not shown heavy 2: not shown light: DIVMTQSPLSLPVTPGEPASISCQASESLVHSNRNTYLHWYLQKPGQSPQLLIYKVSNRFSGVPDRFSGSGSGTDFTLKISRVEAEDVGVYYCSQNTHVPPTFGQGTKVEIERTVAAPSVFIFPPSDEQLKSGTASVVCLLNNFYPREAKVQWKVDNALQSGNSQESVTEQDSKDSTYSLSSTLTLSKADYEKHKVYACEVTHQGLSSPVTKSFNRGEC	740	3600	220	590	1600	0.069	1 fold (KD of GpH7-Kn033/GpH7-Hl033/GpL16-k0 divided by KD of this antibody)	1 fold (KD of GpH7-Kn033/GpH7-Hl033/GpL16-k0 divided by KD of this antibody)	1 fold (KD of GpH7-Kn033/GpH7-Hl033/GpL16-k0 divided by KD of this antibody)	1 fold (KD of GpH7-Kn033/GpH7-Hl033/GpL16-k0 divided by KD of this antibody)	1 fold (KD of GpH7-Kn033/GpH7-Hl033/GpL16-k0 divided by KD of this antibody)	1 fold (KD of GpH7-Kn033/GpH7-Hl033/GpL16-k0 divided by KD of this antibody)
GpH7-Kn037/GpH7-Hl036/GpL16-k0 (antibody, human IgG1, kappa, also called Kn037/Hl036) heavy 1: QVQLVQSGAEVKKPGASVTVSCKASGYTFTDYEMHWIRQPPGEGLEWIGAIDPKTGDTAYSESFQDRVTLTADKSTSTAYMELSSLTSEDTAVYYCTRFYSYTYWGQGTLVTVSSASTKGPSVFPLAPSSKSTSGGTAALGCLVKDYFPEPVTVSWNSGALTSGVHTFPAVLQSSGLYSLSSVVTVPSSSLGTQTYICNVNHKPSNTKVDKKVEPKSCDKTHTCPPCPAPELLAGPDVFLFPPKPKDTLMISRTPEVTCVVVDVSHEDPEVKFNWYVDGVEVHNAKTKPREEQYNSTYRVVSVLTVLHQDWLNGKEYKCKVSNKALPAPEEKTISKAKGQPREPQVCTLPPSRDELTKNQVSLWCLVKGFYPSDIAVEWESNGQPENNYKTTPPVLDSDGSFFLYSKLTVDKSRWQQGNVFSCSVMHEALHNHYTQKSLSLSP heavy 2: QVQLVQSGAEVKKPGASVTVSCKASGYTFTDYEMHWIRQPPGEGLEWIGAIDPKTGDTAYSESFQDRVTLTADKSTSTAYMELSSLTSEDTAVYYCTRFYSYTYWGQGTLVTVSSASTKGPSVFPLAPSSKSTSGGTAALGCLVKDYFPEPVTVSWNSGALTSGVHTFPAVLQSSGLYSLSSVVTVPSSSLGTQTYICNVNHKPSNTKVDKKVEPKSCDKTHTCPPCPAPELLAGPDVFLFPPKPKDTLMISRTPEVTCVVVDVSHEDPEVKFNWYVDGVEVHNAKTKPREEQYNSTYRVVSVLTVLHQDWLNGKEYKCKVSNKALPAPEEKTISKAKGQPREPQVYTLPPSRCELTKNQVSLSCAVKGFYPSDIAVEWESNGQPENNYKTTPPVLDSDGSFFLVSKLTVDKSRWQQGNVFSCSVMHEALHNHYTQKSLSLSP light: DIVMTQSPLSLPVTPGEPASISCQASESLVHSNRNTYLHWYLQKPGQSPQLLIYKVSNRFSGVPDRFSGSGSGTDFTLKISRVEAEDVGVYYCSQNTHVPPTFGQGTKVEIERTVAAPSVFIFPPSDEQLKSGTASVVCLLNNFYPREAKVQWKVDNALQSGNSQESVTEQDSKDSTYSLSSTLTLSKADYEKHKVYACEVTHQGLSSPVTKSFNRGEC	17	230	2.6	27	9.7	0.012	43 fold (KD of GpH7-Kn033/GpH7-Hl033/GpL16-k0 divided by KD of this antibody)	16 fold (KD of GpH7-Kn033/GpH7-Hl033/GpL16-k0 divided by KD of this antibody)	84 fold (KD of GpH7-Kn033/GpH7-Hl033/GpL16-k0 divided by KD of this antibody)	22 fold (KD of GpH7-Kn033/GpH7-Hl033/GpL16-k0 divided by KD of this antibody)	161 fold (KD of GpH7-Kn033/GpH7-Hl033/GpL16-k0 divided by KD of this antibody)	6 fold (KD of GpH7-Kn033/GpH7-Hl033/GpL16-k0 divided by KD of this antibody)
GpH7-Kn032/GpH7-Hl032/GpL16-k0 (antibody, human IgG1, kappa, also called Kn032/Hl032) heavy 1: QVQLVQSGAEVKKPGASVTVSCKASGYTFTDYEMHWIRQPPGEGLEWIGAIDPKTGDTAYSESFQDRVTLTADKSTSTAYMELSSLTSEDTAVYYCTRFYSYTYWGQGTLVTVSSASTKGPSVFPLAPSSKSTSGGTAALGCLVKDYFPEPVTVSWNSGALTSGVHTFPAVLQSSGLYSLSSVVTVPSSSLGTQTYICNVNHKPSNTKVDKKVEPKSCDKTHTCPPCPAPELLGGPDVFLFPPKPKDTLMISRTPEVTCVVVDVSHEDPEVKFNWYVDGVEVHNAKTKPREEQYNSTYRVVSVLTVLHQDWLNGKEYKCKVSNKALPLPEEKTISKAKGQPREPQVCTLPPSRDELTKNQVSLWCLVKGFYPSDIAVEWESNGQPENNYKTTPPVLDSDGSFFLYSKLTVDKSRWQQGNVFSCSVMHEALHNHYTQKSLSLSP heavy 2: QVQLVQSGAEVKKPGASVTVSCKASGYTFTDYEMHWIRQPPGEGLEWIGAIDPKTGDTAYSESFQDRVTLTADKSTSTAYMELSSLTSEDTAVYYCTRFYSYTYWGQGTLVTVSSASTKGPSVFPLAPSSKSTSGGTAALGCLVKDYFPEPVTVSWNSGALTSGVHTFPAVLQSSGLYSLSSVVTVPSSSLGTQTYICNVNHKPSNTKVDKKVEPKSCDKTHTCPPCPAPELLGGPDVFLFPPKPKDTLMISRTPEVTCVVVDVSHEDPEVKFNWYVDGVEVHNAKTKPREEQYNSTYRVVSVLTVLHQDWLNGKEYKCKVSNKALPLPEEKTISKAKGQPREPQVYTLPPSRCELTKNQVSLSCAVKGFYPSDIAVEWESNGQPENNYKTTPPVLDSDGSFFLVSKLTVDKSRWQQGNVFSCSVMHEALHNHYTQKSLSLSP light: DIVMTQSPLSLPVTPGEPASISCQASESLVHSNRNTYLHWYLQKPGQSPQLLIYKVSNRFSGVPDRFSGSGSGTDFTLKISRVEAEDVGVYYCSQNTHVPPTFGQGTKVEIERTVAAPSVFIFPPSDEQLKSGTASVVCLLNNFYPREAKVQWKVDNALQSGNSQESVTEQDSKDSTYSLSSTLTLSKADYEKHKVYACEVTHQGLSSPVTKSFNRGEC	250	440	1.2	470	4.1	0.0028	3 fold (KD of GpH7-Kn033/GpH7-Hl033/GpL16-k0 divided by KD of this antibody)	8.2 fold (KD of GpH7-Kn033/GpH7-Hl033/GpL16-k0 divided by KD of this antibody)	182 fold (KD of GpH7-Kn033/GpH7-Hl033/GpL16-k0 divided by KD of this antibody)	1.2 fold (KD of GpH7-Kn033/GpH7-Hl033/GpL16-k0 divided by KD of this antibody)	381 fold (KD of GpH7-Kn033/GpH7-Hl033/GpL16-k0 divided by KD of this antibody)	24 fold (KD of GpH7-Kn033/GpH7-Hl033/GpL16-k0 divided by KD of this antibody)

— patent publication US20180155451A1 (published 2018)
